Data: US20210380703A1 (RIGEL PHARMACEUTICALS, published 2021)

Key:
[1] = molecular target: T1, Human ACVR2A (human, UniProt P27037 20-135, limits assumed); assay: ELISA
T1 construct: also called activin receptor, type II A
Procedure, shortened: (§1)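 Binding signal was read by ELISA after ACVR2A-specific monoclonal antibodies were tested against human ACVR2A and mouse ACVR2A, with human Fc as the negative control.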

[2] = molecular target: Mouse ACVR2A (mouse, UniProt P27038 20-135, limits assumed); assay: ELISA
Sequence of Mouse ACVR2A (P27038 20-135 limits assumed): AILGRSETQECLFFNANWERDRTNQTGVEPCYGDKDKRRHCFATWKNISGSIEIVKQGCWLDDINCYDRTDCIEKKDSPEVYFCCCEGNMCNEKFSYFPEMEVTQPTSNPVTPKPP
Procedure, shortened: as §1

[3] = molecular target: T2, Goat anti-Human Kappa; assay: ELISA; positive control
T2 construct: Positive control; also called biotinylated goat anti-human kappa light chain
Procedure, shortened: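 ELISA measured binding of ACVR2A-specific monoclonal antibodies to human and mouse ACVR2A. Biotinylated goat anti-human kappa light chain served as positive control and human Fc as negative control.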
Also: test concentration or dose not given here.

T1 sequence (P27037 20-135 limits assumed): as the sequence (P27038 20-135 limits assumed) above, with R20K, I73V counted along it

| Binder | optical density [1] | optical density [2] | optical density [3] |
| --- | --- | --- | --- |
| 375_A03 (antibody, V domains shown, VH/VL only) VH: EVQLLESGGGLVQPGGSLRLSCAASGFTFDSYSMNWVRQAPGKGLEWVAGINYNGGYTSYADSVKGRFTISRDNSKNTLYLQMNSLRAEDTAVYYCARGATWHDTHLDYWGQGTLVTVSS VL: DIQMTQSPSSLSASVGDRVTITCRASQSILTYLNWYQQKPGKAPKLLIYAATSRHSGVPSRFSGSGSGTDFTLTISSLQPEDFATYYCQQSYDNPLTFGGGTKVEIK | 3.62 OD | 3.62 OD | 3.09 OD |
| 376_G05 (antibody, V domains shown, VH/VL only) VH: EVQLLESGGGLVQPGGSLRLSCAASGFTFSSYSMNWVRQAPGKGLEWVAGINYNGGYTSYADSVKGRFTISRDNSKNTLYLQMNSLRAEDTAVYYCARGANWHDTALDYWGQGTLVTVSS VL: DIQMTQSPSSLSASVGDRVTITCRASQSIISYVNWYQQKPGKAPKLVIYAATSRASGVPSRFSGSGSGTDFTLTISSLQPEDFATYYCQQSYESPLTFGGGTKVEIK | 3.75 OD | 3.77 OD | 3.49 OD |
| 375_C11 (antibody, V domains shown, VH/VL only) VH: EVQLLESGGGLVQPGGSLRLSCAASGFTFSSYSMNWVRQAPGKGLEWVSSINYNGGYTSYADSVKGRFTISRDNSKNTLYLQMNSLRAEDTAVYYCARGATWHDTHLDYWGQGTLVTVSS VL: DIQMTQSPSSLSASVGDRVTITCRASQSILSYVNWYQQKPGKAPKLLIYAATSRHSGVPSRFSGSGSGTDFTLTISSLQPEDFATYYCQQSYDTPLTFGGGTKVEIK | 3.59 OD | 3.61 OD | 3.26 OD |
| 376_G06 (antibody, V domains shown, VH/VL only) VH: EVQLLESGGGLVQPGGSLRLSCAASGFTFSSYGMNWVRQAPGKGLEWVAGINYNGGYTGYADSVKGRFTISRDNSKNTLYLQMNSLRAEDTAVYYCARGANWHDTHLDYWGQGTLVTVSS VL: DIQMTQSPSSLSASVGDRVTITCRASQSIVSYVNWYQQKPGKAPKLVIYAATSRASGVPSRFSGSGSGTDFTLTISSLQPEDFATYYCQQSYNSPLTFGGGTKVEIK | 3.42 OD | 3.58 OD | 3.49 OD |
| 376_A07 (antibody, V domains shown, VH/VL only) VH: EVQLLESGGGLVQPGGSLRLSCAASGFTFSSYSMNWVRQAPGKGLEWVSGINYNGGYKSYADSVKGRFTISRDNSKNTLYLQMNSLRAEDTAVYYCARGATWHDTHLDYWGQGTLVTVSS VL: DIQMTQSPSSLSASVGDRVTITCRASQSILTYLNWYQQKPGKAPKLLIYAATSRASGVPSRFSGSGSGTDFTLTISSLQPEDFATYYCQQSYDSPLTFGGGTKVEIK | 3.7 OD | 3.72 OD | 3.19 OD |
| 375_C01 (antibody, V domains shown, VH/VL only) VH: EVQLLESGGGLVQPGGSLRLSCAASGFTFSSYGMNWVRQAPGKGLEWVSSINYNGGYKGYADSVKGRFTISRDNSKNTLYLQMNSLRAEDTAVYYCARGATWHDTHLDYWGQGTLVTVSS VL: not shown | 2.96 OD | 3.27 OD | 3.14 OD |
| 376_G10 (antibody, V domains shown, VH/VL only) VH: EVQLLESGGGLVQPGGSLRLSCAASGFTFDSYGMNWVRQAPGKGLEWVAGINYNGGYTSYADSVKGRFTISRDNSKNTLYLQMNSLRAEDTAVYYCARGANWHDTALDYWGQGTLVTVSS VL: DIQMTQSPSSLSASVGDRVTITCRASQSILSYVNWYQQKPGKAPKLLIYAATSRASGVPSRFSGSGSGTDFTLTISSLQPEDFATYYCQQSYESPLTFGGGTKVEIK | 3.54 OD | 3.52 OD | 3.54 OD |
| 374_H05 (antibody, V domains shown, VH/VL only) VH: EVQLLESGGGLVQPGGSLRLSCAASGFTFSSYSMNWVRQAPGKGLEWVAGINYNGGYTSYADSVKGRFTISRDNSKNTLYLQMNSLRAEDTAVYYCARGATWHDTHLDYWGQGTLVTVSS VL: DIQMTQSPSSLSASVGDRVTITCRASQSILSYVNWYQQKPGKAPKLVIYAATSRASGVPSRFSGSGSGTDFTLTISSLQPEDFATYYCQQSYDNPLTFGGGTKVEIK | 3.31 OD | 3.3 OD | 3.04 OD |
| 376_H01 (antibody, V domains shown, VH/VL only) VH: EVQLLESGGGLVQPGGSLRLSCAASGFTFSDYSMNWVRQAPGKGLEWVAGINYNGGYKGYADSVKGRFTISRDNSKNTLYLQMNSLRAEDTAVYYCARGANWHDTALDYWGQGTLVTVSS VL: DIQMTQSPSSLSASVGDRVTITCRASQSILTYLNWYQQKPGKAPKLLIYAATSRASGVPSRFSGSGSGTDFTLTISSLQPEDFATYYCQQSYSTPLTFGGGTKVEIK | 3.11 OD | 3.31 OD | 3.28 OD |
| 376_H11 (antibody, V domains shown, VH/VL only) VH: EVQLLESGGGLVQPGGSLRLSCAASGFTFDSYSMNWVRQAPGKGLEWVSNINYNGGYTGYADSVKGRFTISRDNSKNTLYLQMNSLRAEDTAVYYCARGANWHDTALDYWGQGTLVTVSS VL: DIQMTQSPSSLSASVGDRVTITCRASQSISRYLNWYQQKPGKAPKLLIYAVTSLASGVPSRFSGSGSGTDFTLTISSLQPEDFATYYCQQSYESPLTFGGGTKVEIK | 3.29 OD | 3.31 OD | 3.43 OD |
| 376_A05 (antibody, V domains shown, VH/VL only) VH: EVQLLESGGGLVQPGGSLRLSCAASGFTFSSYSMNWVRQAPGKGLEWVAGINYNSGYKGYADSVKGRFTISRDNSKNTLYLQMNSLRAEDTAVYYCARGATWHDTHLDYWGQGTLVTVSS VL: DIQMTQSPSSLSASVGDRVTITCRASQSILTYLNWYQQKPGKAPKLLIYAATSRASGVPSRFSGSGSGTDFTLTISSLQPEDFATYYCQQSYNTPLTFGGGTKVEIK | 3.65 OD | 3.64 OD | 3.18 OD |
| 376_F06 (antibody, V domains shown, VH/VL only) VH: EVQLLESGGGLVQPGGSLRLSCAASGFTFSSYGMNWVRQAPGKGLEWVSGINYNGGYTGYADSVKGRFTISRDNSKNTLYLQMNSLRAEDTAVYYCARGANWHDTHLDYWGQGTLVTVSS VL: DIQMTQSPSSLSASVGDRVTITCRASQSILTYVNWYQQKPGKAPKLVIYAATSRASGVPSRFSGSGSGTDFTLTISSLQPEDFATYYCQQSYETPLTFGGGTKVEIK | 3.52 OD | 3.65 OD | 3.47 OD |

Second part, the binder after the results:

| optical density [1] | optical density [2] | optical density [3] | Binder |
| --- | --- | --- | --- |
| 3.63 OD | 3.65 OD | 3.05 OD | 374_D04 (antibody, V domains shown, VH/VL only) VH: EVQLLESGGGLVQPGGSLRLSCAASGFTFSSYSMNWVRQAPGKGLEWVAGINYNGGYTSYADSVKGRFTISRDNSKNTLYLQMNSLRAEDTAVYYCARGATWHDTHLDYWGQGTLVTVSS VL: DIQMTQSPSSLSASVGDRVTITCRASQSILSYLNWYQQKPGKAPKLVIYAATSRHSGVPSRFSGSGSGTDFTLTISSLQPEDFATYYCQQSYDTPLTFGGGTKVEIK |
| 3.69 OD | 3.77 OD | 3.29 OD | 375_F10 (antibody, V domains shown, VH/VL only) VH: EVQLLESGGGLVQPGGSLRLSCAASGFTFSSYSMNWVRQAPGKGLEWVSGINYNGGYTGYADSVKGRFTISRDNSKNTLYLQMNSLRAEDTAVYYCARGATWHDTHLDYWGQGTLVTVSS VL: DIQMTQSPSSLSASVGDRVTITCRASQSILTYLNWYQQKPGKAPKLVIYAATSRASGVPSRFSGSGSGTDFTLTISSLQPEDFATYYCQQSYDTPLTFGGGTKVEIK |
| 3.72 OD | 3.63 OD | 3.19 OD | 376_A02 (antibody, V domains shown, VH/VL only) VH: EVQLLESGGGLVQPGGSLRLSCAASGFTFSSYSMNWVRQAPGKGLEWVAGINYNGGYKSYADSVKGRFTISRDNSKNTLYLQMNSLRAEDTAVYYCARGATWHDTHLDYWGQGTLVTVSS VL: DIQMTQSPSSLSASVGDRVTITCRASQSILSYLNWYQQKPGKAPKLLIYAATSRASGVPSRFSGSGSGTDFTLTISSLQPEDFATYYCQQSYDLPLTFGGGTKVEIK |
| 3.31 OD | 3.34 OD | 3.51 OD | 376_H04 (antibody, V domains shown, VH/VL only) VH: EVQLLESGGGLVQPGGSLRLSCAASGFTFSSYSMNWVRQAPGKGLEWVAGINYNGGYKGYADSVKGRFTISRDNSKNTLYLQMNSLRAEDTAVYYCARGANWHDTALDYWGQGTLVTVSS VL: DIQMTQSPSSLSASVGDRVTITCRASQSILTYVNWYQQKPGKAPKLVIYAATSRASGVPSRFSGSGSGTDFTLTISSLQPEDFATYYCQQSYDLPLTFGGGTKVEIK |
| 3.31 OD | 3.28 OD | 3.32 OD | 375_H08 (antibody, V domains shown, VH/VL only) VH: EVQLLESGGGLVQPGGSLRLSCAASGFTFSSYSMNWVRQAPGKGLEWVSGINYNGGYTSYADSVKGRFTISRDNSKNTLYLQMNSLRAEDTAVYYCARGATWHDTHLDYWGQGTLVTVSS VL: DIQMTQSPSSLSASVGDRVTITCRASQSILTYLNWYQQKPGKAPKLLIYAATSLASGVPSRFSGSGSGTDFTLTISSLQPEDFATYYCQQSYDSPLTFGGGTKVEIK |
| 3.66 OD | 3.67 OD | 3 OD | 374_G05 (antibody, V domains shown, VH/VL only) VH: EVQLLESGGGLVQPGGSLRLSCAASGFTFSSYSMNWVRQAPGKGLEWVSNINYNSGYKGYADSVKGRFTISRDNSKNTLYLQMNSLRAEDTAVYYCARGATWHDTHLDYWGQGTLVTVSS VL: DIQMTQSPSSLSASVGDRVTITCRASQSIISYLNWYQQKPGKAPKLLIYAATSRASGVPSRFSGSGSGTDFTLTISSLQPEDFATYYCQQSYDLPLTFGGGTKVEIK |
| 3.61 OD | 3.65 OD | 3.1 OD | 374_D09 (antibody, V domains shown, VH/VL only) VH: EVQLLESGGGLVQPGGSLRLSCAASGFTFDSYGMNWVRQAPGKGLEWVANINYNGGYKGYADSVKGRFTISRDNSKNTLYLQMNSLRAEDTAVYYCARGATWHDTHLDYWGQGTLVTVSS VL: DIQMTQSPSSLSASVGDRVTITCRASQSIISYVNWYQQKPGKAPKLLIYAATSLASGVPSRFSGSGSGTDFTLTISSLQPEDFATYYCQQSYDTPLTFGGGTKVEIK |
